The text below walks through data of patent publication US20240116985A1 (published 2024).

Starred links: 1 amine or outer side, 2 acyl side, 3 side chain; linkers in the order of their positions; H or OH if unused. Positions of bridges follow the written chain, without caps; N, C: chain ends. Non-standard residues stand in square brackets, D forms with d. Primed or numbered codes have the meaning given here. PyrS2″ = (S)-3-amino-1-((pent-4-en-1-yloxy)carbonyl)pyrrolidine-3-carboxylic acid (stapling residue), C=CCCCOC(=O)N1CC[C@@](N[*:1])(C(=O)[*:2])C1; B5(4) = 2,2-bis(4-pentenyl)glycine = 2-amino-2-(pent-4-en-1-yl)hept-6-enoic acid (stitching residue), C=CCCCC(CCCC=C)(N[*:1])C(=O)[*:2]; B5(5) = 2,2-bis(4-pentenyl)glycine, 2-amino-2-(pent-4-en-1-yl)hept-6-enoic acid (stitching residue), C=CCCCC(CCCC=C)(N[*:1])C(=O)[*:2]; B5(20) = 2-amino-2-(pent-4-en-1-yl)hept-6-enoic acid = bis(4-pentenyl)glycine, stitching residue, C=CCCCC(CCCC=C)(N[*:1])C(=O)[*:2]; B5(21) = 2-amino-2-(pent-4-en-1-yl)hept-6-enoic acid, bis(4-pentenyl)glycine (stitching residue), C=CCCCC(CCCC=C)(N[*:1])C(=O)[*:2]; B5(6) = 2-amino-2-(pent-4-en-1-yl)hept-6-enoic acid (bis(4-pentenyl)glycine), stitching residue, C=CCCCC(CCCC=C)(N[*:1])C(=O)[*:2]; TfeGA = (S)-2-amino-3-((carboxymethyl)(2,2,2-trifluoroethyl)amino)propanoic acid, O=C([C@H](CN(CC(=O)[*:3])CC(F)(F)F)N[*:1])[*:2]; (EtSSpy)AspE = (S)-2-amino-4-oxo-4-(2-(pyridin-2-yldisulfaneyl)ethoxy)butanoic acid, O=C(C[C@H](N[*:1])C(=O)[*:2])OCCSSc1ccccn1; PyrS2 = (S)-3-amino-1-((pent-4-en-1-yloxy)carbonyl)pyrrolidine-3-carboxylic acid, C=CCCCOC(=O)N1CC[C@@](N[*:1])(C(=O)[*:2])C1; (Ac)GA = (S)-2-amino-3-(N-(carboxymethyl)acetamido)propanoic acid, CC(=O)N(CC(=O)[*:3])C[C@H](N[*:1])C(=O)[*:2]; GA = (S)-2-amino-3-((carboxymethyl)amino)propanoic acid, O=C([C@H](CNCC(=O)[*:3])N[*:1])[*:2]; Qui = (S)-2-amino-3-(quinolin-2-yl)propanoic acid, O=C([C@H](Cc1ccc2ccccc2n1)N[*:1])[*:2]; AspSH = (S)-2-amino-4-mercapto-4-oxobutanoic acid, O=C(C[C@H](N[*:1])C(=O)[*:2])S[*:3]; B5 = 2-amino-2-(pent-4-en-1-yl)hept-6-enoic acid, C=CCCCC(CCCC=C)(N[*:1])C(=O)[*:2]; (NHiPr)AsnR = N4-isopropyl-L-asparagine, CC(C)NC(=O)C[C@H](N[*:1])C(=O)[*:2]; B5(28) = 2,2-bis(4-pentenyl)glycine, C=CCCCC(CCCC=C)(N[*:1])C(=O)[*:2]; (NHEt)AsnR = N4-ethyl-L-asparagine, CCNC(=O)C[C@H](N[*:1])C(=O)[*:2]; 2NH2F″ = O=C([C@H](Cc1ccccc1N[*:3])N[*:1])[*:2]; Phe(2-CONH2) = NC(=O)c1ccccc1C[C@H](N)C(=O)O; S7 = C[C@@](CCCCCC=[*:3])(N[*:1])C(=O)[*:2]; Phe(2-Cl) = N[C@@H](Cc1ccccc1Cl)C(=O)O; Bta = N[C@@H](Cc1csc2ccccc12)C(=O)O; αAllylPro = C=CC[C@@]1(C(=O)O)CCCN1; tBuAla = CC(C)(C)C[C@H](N)C(=O)O; 3Thi = N[C@@H](Cc1ccsc1)C(=O)O; S8 = C=CCCCCCC[C@](C)(N)C(=O)O; PyrS2(4) = not defined here; Aib = CC(C)(N)C(=O)O A value given as a limit tells only on which side of the number the result lay.

Assay [1] deals with T1, full-length beta-Catenin (Uniprot ID P35222) (Homo sapiens (Human), UniProt P35222 1-781).
T1 construct: also called bCat; B-Catenin
T1 sequence: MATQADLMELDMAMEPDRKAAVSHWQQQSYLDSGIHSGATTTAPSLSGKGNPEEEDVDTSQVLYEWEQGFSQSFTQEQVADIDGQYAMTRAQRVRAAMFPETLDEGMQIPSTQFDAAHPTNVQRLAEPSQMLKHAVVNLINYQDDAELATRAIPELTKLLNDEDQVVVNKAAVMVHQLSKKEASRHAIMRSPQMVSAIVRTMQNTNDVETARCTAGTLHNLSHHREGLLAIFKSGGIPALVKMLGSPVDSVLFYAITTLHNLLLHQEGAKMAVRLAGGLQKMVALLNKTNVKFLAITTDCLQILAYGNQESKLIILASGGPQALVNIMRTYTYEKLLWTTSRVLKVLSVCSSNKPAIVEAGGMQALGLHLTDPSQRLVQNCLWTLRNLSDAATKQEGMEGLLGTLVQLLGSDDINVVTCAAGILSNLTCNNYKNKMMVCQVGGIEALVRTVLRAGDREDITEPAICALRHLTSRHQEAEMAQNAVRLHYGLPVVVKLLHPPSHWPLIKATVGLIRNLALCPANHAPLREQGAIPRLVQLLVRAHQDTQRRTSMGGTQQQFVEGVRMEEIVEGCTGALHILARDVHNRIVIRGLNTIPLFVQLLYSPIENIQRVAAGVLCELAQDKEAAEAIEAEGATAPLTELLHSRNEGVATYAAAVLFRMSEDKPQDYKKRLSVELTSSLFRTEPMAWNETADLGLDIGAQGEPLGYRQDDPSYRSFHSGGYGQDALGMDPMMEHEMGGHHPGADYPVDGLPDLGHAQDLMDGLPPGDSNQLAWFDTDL
In words: fluorescence polarization competition; 10 nM full-length beta-catenin + 10 nM 5FAM-TCF4(10-53) probe. The method, then:
(§1) The plate was incubated protected from light for 60 minutes at 20° C. prior to read. Reads were performed on a CLARIOstar plate reader (BMG Labtech) in duplicate, and data were fitted to a 1:1 binding model with hill slope using an in-house script. All provided concentrations are final concentrations.
In general terms: Fluorescence polarisation rises when a labelled molecule tumbles more slowly, as on binding a larger partner.

In assay [2] the target is T2, B-cat-Halo (beta-catenin HaloTag fusion expressed in HEK293 cells) (UniProt P35222 1-781).
T2 sequence (looked up): T1 sequence
In words: cell-based or functional assay.

The target of assay [3] is T3, beta-catenin (full-length, Uniprot ID P35222) (Homo sapiens (Human), UniProt P35222 2-781).
T3 construct: The FP protocol says 'full-length beta-Catenin (Uniprot ID P35222)'; also called bCat; B-Catenin
T3 sequence: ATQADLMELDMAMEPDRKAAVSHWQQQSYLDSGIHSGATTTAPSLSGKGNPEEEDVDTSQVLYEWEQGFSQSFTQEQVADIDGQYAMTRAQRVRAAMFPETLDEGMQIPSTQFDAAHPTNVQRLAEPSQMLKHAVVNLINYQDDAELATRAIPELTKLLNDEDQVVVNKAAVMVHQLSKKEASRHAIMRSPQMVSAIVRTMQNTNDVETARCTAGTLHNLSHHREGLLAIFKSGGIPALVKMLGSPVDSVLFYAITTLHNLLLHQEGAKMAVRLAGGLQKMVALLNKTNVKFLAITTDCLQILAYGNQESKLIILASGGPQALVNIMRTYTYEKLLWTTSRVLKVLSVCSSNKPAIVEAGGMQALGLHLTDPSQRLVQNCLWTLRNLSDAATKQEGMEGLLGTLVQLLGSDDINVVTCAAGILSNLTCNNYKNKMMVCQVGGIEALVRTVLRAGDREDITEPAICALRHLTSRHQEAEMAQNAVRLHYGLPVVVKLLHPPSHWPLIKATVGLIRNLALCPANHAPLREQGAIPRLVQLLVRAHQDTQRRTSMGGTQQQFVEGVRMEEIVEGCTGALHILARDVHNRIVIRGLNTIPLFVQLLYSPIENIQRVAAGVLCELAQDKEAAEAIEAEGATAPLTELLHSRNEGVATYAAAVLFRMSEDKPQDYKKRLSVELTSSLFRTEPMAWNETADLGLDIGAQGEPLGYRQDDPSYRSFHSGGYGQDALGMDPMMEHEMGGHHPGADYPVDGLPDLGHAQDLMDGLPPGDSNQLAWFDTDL
In words: fluorescence polarization competition vs 5FAM-TCF4(10-53) on full-length beta-catenin. The method, then: as §1

B1: I-535 (peptide)
peptide: Ac-[αAllylPro]DA[B5(21)][(NHiPr)AsnR]DAAFV[S8]F[Bta]Q-NH2
modifications: staple 1-4, 4-11
notes: Stapled peptide composition; also called Ac-PL3-Asp-Ala-B5-[NHiPr]AsnR-Asp-Ala-Ala-Phe-Val-S8-Phe-BztA-Gln-NH2
Turning to B1, the EC50 (as a rule, the midpoint of the concentration-response curve) in assay [1] is 5 µM.

B2: I-1747 (peptide)
peptide: Ac-[αAllylPro]D[tBuAla][B5(5)]D[TfeGA]AAFL[PyrS2″][3Thi][Bta]L-NH2
modifications: staple 1-4, 4-11
For B2, the “NanoBRET Abs IC50” value in assay [2] is greater than 20 µM.

B3: I-1732 (peptide)
peptide: Ac-[αAllylPro]D[tBuAla][B5(4)]D[GA]AAFN[PyrS2(4)][3Thi][Bta]Q-NH2
modifications: staple 1-4, 4-11; not fully specified; reading uncertain
For B3, the “NanoBRET Abs IC50” value in assay [2] is greater than 20 µM.

B4: I-134: Ac-PL3-Asp-Ala-B5-Asp-Glu-Ala-Ala-Phe-Val-S8-Phe-Trp-Aib-NH2 (peptide)
peptide: Ac-[αAllylPro]DA[B5(28)]DEAAFV[S8]FW[Aib]-NH2
modifications: staple 1-4, 4-11
notes: Stapled peptide
B4: the IC50 (as a rule, the midpoint of a concentration-inhibition curve) in assay [3] is 2.7 µM. In other words, the single-digit micromolar range.

B5: I-1727 (peptide)
peptide: Ac-[αAllylPro]D[tBuAla][B5(4)]DDAA[2NH2F″]N[PyrS2(4)][Phe(2-Cl)][Bta]Q-NH2
modifications: staple 1-4, 4-11; not fully specified; reading uncertain
Consider B5, for which, in assay [2], the “NanoBRET Abs IC50” value came to 34.1 µM.

B6: I-1724 (peptide)
peptide: Ac-[αAllylPro][(EtSSpy)AspE][tBuAla][B5]DDAAFN[PyrS2][Phe(2-Cl)][Bta]Q-NH2
modifications: staple 1-4, 4-11; not fully specified
As for B6, the “NanoBRET Abs IC50” value in assay [2] is 29.7 µM.

B7: I-132: Ac-PL3-Asp-Ala-B5-Asp-Glu-Ala-Ala-Phe-Val-S7-Phe-Trp-Gln-NH2 (peptide)
peptide: Ac-[αAllylPro]DA[B5]DEAAFV[S7]FWQ-NH2
modifications: staple 1-4, 4-11
notes: Stapled peptide
Take B7: in assay [3], the 50% inhibitory concentration (IC50) was 5 µM.

B8: I-513 (peptide)
peptide: Ac-[αAllylPro]DA[B5(20)]DEAAFN[S8][Phe(2-CONH2)][Bta]H-NH2
modifications: staple 1-4, 4-11
notes: Stapled peptide composition; also called Ac-PL3-Asp-Ala-B5-Asp-Glu-Ala-Ala-Phe-Asn-S8-2CBMF-BztA-His-NH2
With B8, in assay [1], the 50% effective concentration (EC50) worked out at 0.143 µM.

B9: I-143: Ac-PL3-Asp-Ala-B5-Asp-Glu-Ala-Ala-Phe-Val-S8-Phe-Qui-Gln-NH2 (peptide)
peptide: Ac-[αAllylPro]DA[B5(4)]DEAAFV[S8]F[Qui]Q-NH2
modifications: staple 1-4, 4-11
notes: Stapled peptide
In the case of B9, the IC50 in assay [3] is 2.27 µM.

B10: I-1722 (peptide)
peptide: Ac-[αAllylPro][AspSH][tBuAla][B5]DDAAFN[PyrS2][Phe(2-Cl)][Bta]Q-NH2
modifications: staple 1-4, 4-11; not fully specified
Consider B10, for which the “NanoBRET Abs IC50” value in assay [2] is greater than 20 µM.

B11: I-1731 (peptide)
peptide: Ac-[αAllylPro]D[tBuAla][B5]D[GA]AAFL[PyrS2][3Thi][Bta]Q-NH2
modifications: staple 1-4, 4-11
On to B11, for which the “NanoBRET Abs IC50” value in assay [2] was found to be 29.5 µM.

B12: I-1729 (peptide)
peptide: Ac-[αAllylPro]D[tBuAla][B5]D[(Ac)GA]AAFL[PyrS2][3Thi][Bta]Q-NH2
modifications: staple 1-4, 4-11
For the molecule B12, the “NanoBRET Abs IC50” value in assay [2] was 23 µM.

B13: I-536 (peptide)
peptide: Ac-[αAllylPro]DA[B5(21)][(NHEt)AsnR]DAAFV[S8]F[Bta]Q-NH2
modifications: staple 1-4, 4-11
notes: Stapled peptide composition; also called Ac-PL3-Asp-Ala-B5-[NHEt]AsnR-Asp-Ala-Ala-Phe-Val-S8-Phe-BztA-Gln-NH2
Take B13: the EC50 in assay [1] was determined as 4.47 µM.

B14: I-506 (peptide)
peptide: Ac-[αAllylPro]DL[B5(6)]DEAAFQ[S8]F[Bta]H-NH2
modifications: staple 1-4, 4-11
notes: Stapled peptide composition; also called Ac-PL3-Asp-Leu-B5-Asp-Glu-Ala-Ala-Phe-Gln-S8-Phe-BztA-His-NH2
Regarding B14, the concentration for a half-maximal effect (EC50) in assay [1] was 0.025 µM.

B15: I-507 (peptide)
peptide: XDAXDEAAFQXFXT
modifications: not fully specified; N-terminal acetyl (Ac); PL3 at X1, B5 at X4 and S8 at X11 stapled (PL3-B5 and B5-S8, olefin metathesis); BztA at X13; C-terminal amide (NH2)
notes: Stapled peptide composition; also called Ac-PL3-Asp-Ala-B5-Asp-Glu-Ala-Ala-Phe-Gln-S8-Phe-BztA-Thr-NH2
For B15, the EC50 in assay [1] turned out to be 0.192 µM.
